Here are results for six molecules from patent publication US20260242485A1 (LEPU BIOPHARMA, published 2026).

The target of assay [1] is T1, human CD16A-158V expressed on CHO-K1 cells (human, UniProt P08637 17-254).
T1 construct: whole, on cells; also called hCD16A-158V; CHO-K1-hCD16A-158V
Put plainly: flow cytometry, CHO-K1-hCD16A-158V cells, Alexa Fluor 647 anti-human IgG Fc, geometric mean. As for the experimental part: (§1) In order to evaluate the binding activity of the chimeric mAbs to human CD16A expressed on cells, cell-based binding assay was employed as followed. […] The antibody dilutions were incubated with 1×10⁵ indicated cells in the 96-well microplate for one hour at 4° C. The antibodies binding to the antigen on the cell surface were detected with PE fluorophore-conjugated anti-human IgG Fc secondary antibodies (ThermoFisher scientific, Cat. No. 12-4998-82) at a dilution rate of 1:1000. Cells were analyzed by flow cytometer LSRFortessa Cell Analyzer (BD Biosciences). Data were analyzed with Flowjo 10.0 software. The graph and statistics analysis were generated with four-parameter nonlinear regression curve fit in Graphpad Prism 9 software.
(§2) The assay was performed following the protocol described above. The antibodies binding to the antigen on the cell surface were detected with Alexa Fluor® 647 AffiniPure™ F(ab′)₂ fragment goat anti-human IgG Fcγ fragment specific secondary antibody (Jackson Immuno Research, Cat. No. 109-606-098) at a dilution rate of 1:2000.

Assay [2] deals with T2, human CD16A-158F expressed on CHO-K1 cells (human, UniProt P08637 17-254).
T2 construct: whole, on cells
T2 sequence (P08637 17-254): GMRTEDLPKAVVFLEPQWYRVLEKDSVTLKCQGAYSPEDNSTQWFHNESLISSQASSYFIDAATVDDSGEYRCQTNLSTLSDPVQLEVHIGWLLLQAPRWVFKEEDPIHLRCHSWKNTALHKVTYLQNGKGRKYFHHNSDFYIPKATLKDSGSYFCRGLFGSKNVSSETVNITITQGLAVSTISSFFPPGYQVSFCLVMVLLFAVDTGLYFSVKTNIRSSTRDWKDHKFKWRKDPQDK
Kind of assay: flow cytometry, CHO-K1-hCD16A-158F cells, geometric mean. As for the experimental part: as §1
(§3) The assay was performed following the protocol described above.
A general note: Flow cytometry measures light scatter and fluorescence of single cells or particles in a stream.

For assay [3], the target named is T3, cynomolgus CD16 expressed on CHO-K1 cells (cynomolgus, UniProt Q8SPW2 17-254).
T3 construct: whole, on cells; also called cyno CD16; CHO-K1-cynoCD16
T3 sequence (Q8SPW2 17-254): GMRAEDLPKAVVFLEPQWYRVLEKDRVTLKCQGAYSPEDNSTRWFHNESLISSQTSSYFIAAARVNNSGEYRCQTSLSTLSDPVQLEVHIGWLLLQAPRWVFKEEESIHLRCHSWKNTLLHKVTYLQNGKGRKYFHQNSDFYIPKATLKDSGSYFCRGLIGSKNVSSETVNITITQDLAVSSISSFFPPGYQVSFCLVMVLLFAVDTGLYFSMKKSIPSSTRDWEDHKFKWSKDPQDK
Kind of assay: flow cytometry, CHO-K1-cyno CD16 cells, Alexa Fluor 647 anti-human IgG Fc, geometric mean. How it is done:
as §1, §2

Assay [4] concerns the target T1, human CD16A-158V expressed on CHO-K1 …. Kind of assay: flow cytometry, CHO-K1-hCD16A-158V cells, geometric mean. How it is done: as §1, §3
Assay [5] concerns the target T2, human CD16A-158F expressed on CHO-K1 …. Put plainly: flow cytometry, CHO-K1-hCD16A-158F cells, Alexa Fluor 647 anti-human IgG Fc, geometric mean. As for the experimental part:
as §1, §2

In assay [6] the target is T3, cynomolgus CD16 expressed on CHO-K1 …. Kind of assay: flow cytometry, CHO-K1-cyno CD16 cells, geometric mean. How it is done:
as §1, §3

Assay [7] has as its target T4, human GPC3 on HepG2 cells (human, UniProt P51654 25-554).
T4 construct: whole, on cells; also called GPC3-positive HepG2 cells
Kind of assay: flow cytometry, HepG2 cells (GPC3 positive), geometric mean.

Assay [8] has as its target T2, human CD16A-158F expressed on CHO-K1 …. Kind of assay: flow cytometry, CHO-K1-hCD16A-158F cells, geometric mean. This is another data set of the same source.
Assay [9] shares this target. Described as above. The source says:
(§4) The purpose of the assay was to evaluate the binding of BsAb to each of the hFcγRs.
The source holds these as a separate data set.

Assay [10] concerns the target T1, human CD16A-158V expressed on CHO-K1 …. Kind of assay: flow cytometry, CHO-K1-hCD16A-158V cells, geometric mean.
Description: as §4
This is another data set of the same source.

T1 sequence (P08637 17-254 F176V): as the sequence (P08637 17-254) above, with F160V counted along it
T4 sequence (P51654 25-554 limits assumed): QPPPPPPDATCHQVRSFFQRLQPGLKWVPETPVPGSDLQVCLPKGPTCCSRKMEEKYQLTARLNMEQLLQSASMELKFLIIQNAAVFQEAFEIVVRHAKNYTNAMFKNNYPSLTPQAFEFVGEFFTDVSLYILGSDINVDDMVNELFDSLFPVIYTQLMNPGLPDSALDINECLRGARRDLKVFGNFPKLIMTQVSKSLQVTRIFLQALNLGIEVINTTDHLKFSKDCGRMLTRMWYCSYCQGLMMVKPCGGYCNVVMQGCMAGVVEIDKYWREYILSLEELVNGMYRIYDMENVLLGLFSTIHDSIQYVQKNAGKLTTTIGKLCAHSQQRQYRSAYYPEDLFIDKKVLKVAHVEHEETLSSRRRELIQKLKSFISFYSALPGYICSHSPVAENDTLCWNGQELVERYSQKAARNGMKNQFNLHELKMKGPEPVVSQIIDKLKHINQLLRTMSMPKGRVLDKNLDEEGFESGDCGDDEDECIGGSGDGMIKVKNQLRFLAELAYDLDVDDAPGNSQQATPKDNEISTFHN

B1: 45H6E8-z21 (antibody, human IgG1, V domains shown)
VH: QVQLVQSGAEVKKPGASVKVSCKVSGYTLTDYYMQWVRQAPGKGLEWMGWIDPENGDTEYAPKFQGRVTMTADTSTDTAYMELSSLRSEDTAVYYCTTGGNYVDWGQGTTVTVSS
VL: DIQMTQSPSFLSASVGDRVTITCKASQNVGTAVAWYQQKPGKAPKLLIYSASNRYTGVPDRFSGSGSGTDFTLTISSLQPEDFATYFCQQYSSYPLLTFGQGTRLEIK
notes: Human IgG1 LALAPG constant region; also called HU-VH1-8 / HU-VL1-3
On to B1, for which the “EC50 (read off the curve)” value in assay [1] is about 0.4 nM; in [2], about 0.4 nM; in assay [3], about 1 nM; in assay [4], about 0.4 nM; in assay [5], about 0.4 nM; in assay [6], about 0.7 nM.

B2: 45H6E8-z21p1 (antibody, V domains shown)
VH: QVQLVQSGAEVKKPGASVKVSCKVSGYTLTDYYMQWVRQAPGKGLEWMGWIDPEQGDTEYAPKFQGRVTMTADTSTDTAYMELSSLRSEDTAVYYCTTGGNYVDWGQGTTVTVSS
VL: DIQMTQSPSFLSASVGDRVTITCKASQNVGTAVAWYQQKPGKAPKLLIYSASNRYTGVPDRFSGSGSGTDFTLTISSLQPEDFATYFCQQYSSYPLLTFGQGTRLEIK
notes: PTM-removed version of z21
Consider B2, for which the binding result in [7] is listed as “no binding (tested: 100 nM)”.

B3: GPC3-hIgG1DE (antibody)
chain 1: not shown
chain 2: DIVMTQTPLSLSVTPGQPASISCRSSQSLVHSNGNTYLQWYLQKPGQSPQLLIYKVSNRFSGVPDRFSGSGSGTDFTLKISRVEAEDVGVYYCFQSIHVPYTFGGGTKLEIKRTVAAPSVFIFPPSDEQLKSGTASVVCLLNNFYPREAKVQWKVDNALQSGNSQESVTEQDSKDSTYSLSSTLTLSKADYEKHKVYACEVTHQGLSSPVTKSFNRGEC
Take B3: in assay [7], the “EC50 (read off the curve)” value is about 0.3 nM.

B4: GPC3-hIgG1 (antibody)
heavy: not shown
light: DIVMTQTPLSLSVTPGQPASISCRSSQSLVHSNGNTYLQWYLQKPGQSPQLLIYKVSNRFSGVPDRFSGSGSGTDFTLKISRVEAEDVGVYYCFQSIHVPYTFGGGTKLEIKRTVAAPSVFIFPPSDEQLKSGTASVVCLLNNFYPREAKVQWKVDNALQSGNSQESVTEQDSKDSTYSLSSTLTLSKADYEKHKVYACEVTHQGLSSPVTKSFNRGEC
notes: also called GPC3-hIgG1 mAb with wild-type Fc region
Turning to B4, the binding result in assay [8] was “no binding (tested: 100 nM)”. The “EC50 (read off the curve)” value in assay [7] is about 0.3 nM.

B5: CCR8-hIgG1 mAb (antibody)
VH: not shown
VL: DIVMTQSPLSLPVTPGEPASISCRSSKSLLHSNANTYLYWYLQKPGQSPQLLIYRMSNLASGVPDRFSGSGSGTAFTLKISRVEAEDVGVYYCMQHLEYPFTFGGGTKLEIKRTVAAPSVFIFPPSDEQLKSGTASVVCLLNNFYPREAKVQWKVDNALQSGNSQESVTEQDSKDSTYSLSSTLTLSKADYEKHKVYACEVTHQGLSSPVTKSFNRGEC
notes: Wildtype human IgG1; also called anti-hCCR8 monoclonal antibody with wildtype Fc hIgG1
With B5, the values for the EC50 in [9] and in [10] were 20 nM and 5.2 nM, respectively.

B6: CCR8-45H6E8-hIgG1LALAPG (bispecific antibody)
heavy: EVQLVESGGGLVQPGGSLRLSCAASGFSFNTYVMNWVRQAPGKGLEWVARIRTKSNNYATFYVDSVKDRFTISRDDSKNSLYLQMNSLKTEDTAVYYCVSGTITRLGAGLDYWGQGTLVTVSSASTKGPSVFPLAPSSKSTSGGTAALGCLVKDYFPEPVTVSWNSGALTSGVHTFPAVLQSSGLYSLSSVVTVPSSSLGTQTYICNVNHKPSNTKVDKKVEPKSCDKTHTCPPCPAPEAAGGPSVFLFPPKPKDTLMISRTPEVTCVVVDVSHEDPEVKFNWYVDGVEVHNAKTKPREEQYNSTYRVVSVLTVLHQDWLNGKEYKCKVSNKALGAPIEKTISKAKGQPREPQVYTLPPSREEMTKNQVSLTCLVKGFYPSDIAVEWESNGQPENNYKTTPPVLDSDGSFFLYSKLTVDKSRWQQGNVFSCSVMHEALHNHYTQKSLSLSPGKGGGGSGGGGSGGGGSEVQLQQSGAELVRSGASVKLSCTASGFNIKDYYMQWVKQRPEQGLEWIGWIDPENGDTEYAPKFQGKATMTADTSSNTAYLQLSSLTSEDTAVYYCTTGGNYVDWGQGTTLTVSSGGGGSGGGGSGGGGSDIVMTQSQKFMSTSVGDRVSITCKASQNVGTAVAWYQQKPGQSPKLLIYSASNRYTGVPDRFTGSGSGTDFTLTISNMQSEDLADYFCQQYSSYPLLTFGAGTNLELK
light: DIVMTQSPLSLPVTPGEPASISCRSSKSLLHSNANTYLYWYLQKPGQSPQLLIYRMSNLASGVPDRFSGSGSGTAFTLKISRVEAEDVGVYYCMQHLEYPFTFGGGTKLEIKRTVAAPSVFIFPPSDEQLKSGTASVVCLLNNFYPREAKVQWKVDNALQSGNSQESVTEQDSKDSTYSLSSTLTLSKADYEKHKVYACEVTHQGLSSPVTKSFNRGEC
notes: to be checked; also called CCR8-45H6E8-hIgG1LALAPG BsAb; CCR8-45H6E8 LALAPG BsAb
Regarding B6, the EC50 in assay [9] amounted to 0.29 nM; in assay [10] it was 0.57 nM.

Usually EC50 (read off the curve) stands for the concentration that produces a half-maximal response. Lower therefore signals greater potency. As usually defined, the EC50 is the concentration that produces a half-maximal response. Read a high EC50 as lower potency in that assay.
